This passage reports Km and kcat results from publication PMC11609597, “Characterization of two bacterial tyrosinases from the halophilic bacterium Hahella sp. CCB MM4 relevant for phenolic compounds oxidation in wetlands” (FEBS Open Bio, 2024).

The target in data set [1] is T1, cleaved-HcTyr1 (Hahella sp. CCB-MM4, UniProt A0A261GRE4).
T1 construct: gene BTA51_09820; TYR domain after self-cleavage of the C-terminal LID domain during storage (over 2 months, 4 °C); used without further purification; expressed in E. coli BL21(DE3) with C-terminal His tag; Cu(II) added 2:1
Nature of the data set: MBTH o-quinone trapping, absorbance at […] nm, Michaelis-Menten fit. Type of data set: biochemical. The settings on record: 50 mM potassium phosphate pH 7.0, 25 °C, 5 mM MBTH, 2% N,N'-dimethylformamide, Cu(II) 2:1; LID self-cleaved form; diphenolase.

Substrate in data set [2]: N[C@@H](Cc1ccc(O)c(O)c1)C(=O)O
Briefly: purified protein. The settings on record: 5 mM MBTH, 2% N,N'-dimethylformamide. It counts as biochemical, Hahella sp. CCB-MM4.

Substrate in data set [3]: N[C@@H](Cc1ccc(O)cc1)C(=O)O
Briefly: purified protein. Type of data set: biochemical, Hahella sp. CCB-MM4. To be noted: 5 mM MBTH, 2% N,N'-dimethylformamide.

Where [4] appears, read: 50 mM potassium phosphate pH 7.0, 25 °C, Cu(II) 2:1, latent form, diphenolase.
Where [5] appears, read: 50 mM potassium phosphate pH 7.0, 25 °C, Cu(II) 2:1, latent form, monophenolase.
[6] abbreviates: 50 mM sodium citrate pH 5.5, 25 °C, Cu(II) 2:1, diphenolase.
Setting [7] is: 50 mM sodium citrate pH 5.5, 25 °C, Cu(II) 2:1, monophenolase.

`N[C@@H](Cc1ccc(O)c(O)c1)C(=O)O` [L-DOPA]: the Km – broadly, the substrate concentration at which the rate is half of its maximum – in data set [1] was 347 ± 7 µM.

B1: HcTyr1 (latent-HcTyr1) (Hahella sp. CCB-MM4) (protein)
chain: MKTRQNVYELKDDTLSWYSRAVEEMKSRDINDPTSWWYQGAIHGYATYPSALTYWHDATGYPPSQQTVNSGFWNRCQHGTWYFLPWHRMYLFYFEEIVAKAIRDMGGPADWTLPYWNYCEAYNTSASPSNQQQALQIPPEFGSSQGPNADFASLWIKNRRNYVLNKNNVNPWPAMNEAEFTNSGGDISFGGGVTGFAHSGGQTGQLESLPHNVVHTDINGAMGNPDTAALDPIFWLHHANIDRLWQVWLAQAGRSNPVVNAWKDFRFKFHDANGQPVEIAVKDVETTQLLGYVYTPAFPLSSTTPARRSVPAMDVVGATSASFSVGDHMAPLDLTMVPQPARGARLLAARGGDEKRTILRISNVKGKGATSPIDLFITNRDNEEGNEENFVGCIGLFGLENASTPSVESDGSGLNFAIDISDTINKLRQRDDWDEDNIRVQLIPQSKQDSDVEINVGRVSLHSEID
notes: full length 466 aa with LID domain (latent), C-terminal His tag (pET22b), E. coli BL21(DE3), about 52 kDa, monomer; Cu(II) added 2:1
As for B1, in data set [2] (setting [4]), the Michaelis-Menten constant (Km) was found to be 370 ± 5 µM and the turnover number (kcat) (as a rule, the maximal rate divided by the concentration of active sites) was found to be 1.00 ± 0.0 s⁻¹. In addition, in data set [3] (setting [5]), the Km turned out to be 187 ± 35 µM and the turnover number (kcat) is 0.71 ± 0.03 s⁻¹.

B2: HcTyr2 (Hahella sp. CCB-MM4) (protein)
chain: MGDSSELNVRRSVRDLQAEYDRGNRKPLEDLIRAWKGIQELPPDDKRSFFILGGYHGEPFDYRNAVDALPPDDIYTYWGGWCNHGNVLFPTWHRIYILKLEEALQSIVPGVTLPFWDETSEETVKKGIPDVLTREYFELDGENIKNPLYSYTLPLSLSDNVPGDNKAYEKPAGYETVRYPLSGLVGTPEARAATAKHNAKYPNPIENTQLLNKNIIAWLHGSGKDEEGPTTTDPNPKGRGVKWMYEKCLSAPNYTVFSNTTSAGQWNLDHPAKSVVALEQPHNDVHLAVGGFDIPGQGESGQVADANGDMGENNTAALDPIFFFHHCNVDRMFWLWQKQNGFINKLEVITGYYGTNSSDSQGPTPGIPPGTPLDLNTPLNPFIKDEFGNPFTSMDCINIEEQLGYTYGPGSLDEVPKPEPITGGSTKKLTVRGINRGLFDGSFVIRAYASVPDAQGQLTEYYLGDHAVLSRRNVVKCANCLTHLEVIAHFPLDTLSADLVDKAEYWITIQHRGHSKRMKVDKDTGQSEKALLAQRAELPEKLKYSISVTD
notes: full length 550 aa with LID domain attached, C-terminal His tag (pET22b), E. coli BL21(DE3), about 61 kDa; Cu(II) added 2:1
Regarding B2, in data set [2] (setting [6]), the Km is 196 ± 6 µM and the kcat turned out to be 9.94 ± 0.0 s⁻¹. Besides, in data set [3] (setting [7]), the Michaelis-Menten constant (Km) stood at 160 ± 5 µM and the turnover number (kcat) was determined as 6.12 s⁻¹.
